The target of experiment [1] is 天然Stx2 (natural Shiga toxin II of enterohaemorrhagic E. coli O157:H7) (肠出血性大肠杆菌(EHEC) O157:H7) (UniProt P09385).
Experiment [2] shares this target. As to the kind of experiment: cell-based or functional assay.

Data on one molecule can be found in patent publication CN101357942A.

Chain of UniProt P09385 (P09385 23-319, chain 1 of 2): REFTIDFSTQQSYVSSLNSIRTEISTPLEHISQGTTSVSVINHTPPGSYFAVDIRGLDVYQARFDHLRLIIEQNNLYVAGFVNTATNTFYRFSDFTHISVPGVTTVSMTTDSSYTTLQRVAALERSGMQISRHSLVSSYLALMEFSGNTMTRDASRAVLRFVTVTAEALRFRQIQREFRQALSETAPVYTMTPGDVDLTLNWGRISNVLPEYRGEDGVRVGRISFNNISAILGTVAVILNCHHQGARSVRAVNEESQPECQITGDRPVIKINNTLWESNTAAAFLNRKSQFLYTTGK
Chain of UniProt P09385 (P09386 20-89, chain 2 of 2, further chain): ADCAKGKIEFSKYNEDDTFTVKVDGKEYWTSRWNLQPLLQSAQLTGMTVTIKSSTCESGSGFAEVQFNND

B1: 1F2Fab抗体 (recombinant Fab of 1F2, expressed from Pcomb3X-1F2Fab in E. coli XL-blue) (Fab, V domains shown)
VH: SGGGLVQPGGSLKLSCAASGFTFSVYGMSWVRQTPDKRLELVATINNNGGSTYYPDSVKGRFTISRDNAKNTLYLQMSSLKSEDTAMYYCASIPLFGNYWGQGTSVTVSS
VL: MTQTPLSLPVSLGDQASISCRSSQSIVHSNGNTYLEWYLQKPGQSPKFLIYKVSRFSGVPDRFSGSGSGTDFTLKISRVEAEDLGVYYCFQGSHVPWTFGGGTKLEIKR
For B1, the affinity relative to parental mAb 1F2 in experiment [1] was found to be 85%. Besides, the 对Stx2细胞毒作用的抑制率 (Vero cells, MTT) in experiment [2] stood at 83%.
